Data from IntAct's records for PubMed 19001025.

B1: Nucleolar protein 3 (Rattus norvegicus (Rat)), Q62881 (parent)
chain: MGNMQERPSETIDRERKRLVETLQADSGLLLDALVARGVLTGPEYEALDALPDAERRVRRLLLLVQSKGEAACQELLRCAQQTVSMPDPAWDWQHVGPGYRDRSYDPPCPGHWTPEAPSSGTTCPGLPRASEEEEIGGPEDSEAVQPRTPEEPELEAEATKGDEPDLEQEMEPEPEPEVEPEPEPEPEPEPEPEPEPEPEPEPEREPDFQEGDESEGCENT
partner: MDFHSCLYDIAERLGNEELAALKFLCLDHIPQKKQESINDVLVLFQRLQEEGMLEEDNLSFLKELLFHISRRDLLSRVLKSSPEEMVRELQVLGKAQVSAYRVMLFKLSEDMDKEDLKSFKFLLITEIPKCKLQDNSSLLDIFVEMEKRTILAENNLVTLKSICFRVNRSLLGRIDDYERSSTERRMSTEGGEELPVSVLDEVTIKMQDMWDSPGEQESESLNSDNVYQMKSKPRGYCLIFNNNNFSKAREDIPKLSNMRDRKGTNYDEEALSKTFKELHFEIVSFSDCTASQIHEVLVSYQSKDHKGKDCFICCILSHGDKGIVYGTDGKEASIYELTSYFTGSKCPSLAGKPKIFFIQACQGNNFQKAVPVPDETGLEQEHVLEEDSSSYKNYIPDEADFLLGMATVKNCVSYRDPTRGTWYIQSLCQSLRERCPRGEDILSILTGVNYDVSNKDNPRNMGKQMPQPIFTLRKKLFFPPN

Variants of: B1
Details: with casp8_rat Casp8, Q9JHX4

effect of a mutation on the interaction | Variant
disrupting interaction | T149D
